According to US20180057596A1:
Read-outs that look alike come from different tables or passages of the source.

Key:
[1] = target: antibody tested in the epitope mapping of Example 5; experiment: HTRF competition, test protein against biotinylated human IL-4Rα/Fc for cryptate labelled antibody
[2] = target: antibody tested in the epitope mapping of Example 5; experiment: as above; remark: listed apart in the source
[3] = target: antibody tested in the epitope mapping of Example 5; experiment: HTRF competition
[4] = target: antibody tested in the epitope mapping of Example 5; experiment: HTRF competition, test protein against biotinylated human IL-4Rα/Fc for cryptate labelled antibody; remark: listed apart in the source

B1: MoIL-4Rα (receptor)
chain: IKVLGEPTCFSDYIRTSTCEWFLDSAVDCSSQLCLHYRLMFFEFSENLTCIPRNSASTVCVCHMEMNRPVQSDRYQMELWAEHRQLWQGSFSPSGNVKPLAPDNLTLHTNVSDEWLLTWNNLYPSNNLLYKDLISMVNISREDNPAEFIVYNVTYKEPRLSFPINILMSGVYYTARVRVRSQILTGTWSEWSPSITWYNHFQLPLNPAFLYKVVGAADYKDDDDKAAHHHHHHHHHH
Q: For B1, which % inhibition at the highest concentration (1000 nM) [1] is on record?
A: The % inhibition at the highest concentration (1000 nM) was 45%.

B2: HuD1MoD2IL-4Rα (receptor)
chain: MKVLQEPTCVSDYMSISTCEWKMNGPTNCSTELRLLYQLVFLLSEAHTCIPENNGGAGCVCHLLMDDVVSADNYTLDLWAGQQLLWKGSFKPSENVKPLAPDNLTLHTNVSDEWLLTWNNLYPSNNLLYKDLISMVNISREDNPAEFIVYNVTYKEPRLSFPINILMSGVYYTARVRVRSQILTGTWSEWSPSITWYNHFQLPLDYKDDDDKAAHHHHHHHHHH
Q: Which IC50 [1] does the source give for B2 here?
A: The IC50 was 3.4 nM.

B3: MoD1HuD2IL-4Rα (receptor)
chain: IKVLGEPTCFSDYIRTSTCEWFLDSAVDCSSQLCLHYRLMFFEFSENLTCIPRNSASTVCVCHMEMNRPVQSDRYQMELWAEHRQLWQGSFSPSGHVKPRAPGNLTVHTNVSDTLLLTWSNPYPPDNYLYNHLTYAVNIWSENDPADFRIYNVTYLEPSLRIAASTLKSGISYRARVRAWAQCYNTTWSEWSPSTKWHNSYREPFDYKDDDDKAAHHHHHHHHHH
Q: How did the % inhibition at the highest concentration (1000 nM) [1] turn out when B3 was run?
A: The % inhibition at the highest concentration (1000 nM) was 34%.

B4: MoLoop2HuIL-4Rα (receptor)
chain: MKVLQEPTCVSDYMSISTCEWKMNGPTNCSTELRLLYQLMFFEFSENLTCIPENNGGAGCVCHLLMDDVVSADNYTLDLWAGQQLLWKGSFKPSEHVKPRAPGNLTVHTNVSDTLLLTWSNPYPPDNYLYNHLTYAVNIWSENDPADFRIYNVTYLEPSLRIAASTLKSGISYRARVRAWAQCYNTTWSEWSPSTKWHNSYREPFDYKDDDDKAAHHHHHHHHHH
Q: Which IC50 [1] does the source give for B4 here?
A: Its IC50 is 23 nM.

Q: What about the IC50 [2] of the same binder?
A: Its IC50 is 25 nM.

Q: What about the fold higher IC50 than human IL-4Rα [3] of the same binder?
A: Its fold higher IC50 than human IL-4Rα is 100 fold.

B5: MoLoop3HuIL-4Rα (receptor)
chain: MKVLQEPTCVSDYMSISTCEWKMNGPTNCSTELRLLYQLVFLLSEAHTCIPENNGGAGCVCHLEMNRPVQSDRYTLDLWAGQQLLWKGSFKPSEHVKPRAPGNLTVHTNVSDTLLLTWSNPYPPDNYLYNHLTYAVNIWSENDPADFRIYNVTYLEPSLRIAASTLKSGISYRARVRAWAQCYNTTWSEWSPSTKWHNSYREPFDYKDDDDKAAHHHHHHHHHH
Q: What does the source list for B5?
A: % inhibition at the highest concentration (1000 nM) [1]: 58%; % inhibition at the highest concentration (1000 nM) [4]: 45%

B6: AllMoLoopsHuIL-4Rα (receptor)
chain: MKVLQEPTCVSDYIRTSTCEWKMNGPTNCSTELRLLYQLMFFEFSENLTCIPENNGGAGCVCHLEMNRPVQSDRYTLDLWAGQQLLWKGSFKPSEHVKPRAPGNLTVHTNVSDTLLLTWNNLYPSNNYLYNHLTYAVNIWSENDPADFRIYNVTYLEPSLRIAASTLKSGISYRARVRAWSQILTGTWSEWSPSTKWHNSYREPFDYKDDDDKAAHHHHHHHHHH
Q: B6 was tested. Which % inhibition at the highest concentration (1000 nM) [1] did it give?
A: Its % inhibition at the highest concentration (1000 nM) is 41%.

B7: EM18 (receptor)
chain: MKVLQEPTCVSDYMSISTCEWKMNGPTNCSTELRLLYQLVFFEFSENLTCIPENNGGAGCVCHLLMDDVVSADNYTLDLWAGQQLLWKGSFKPSEHVKPRAPGNLTVHTNVSDTLLLTWSNPYPPDNYLYNHLTYAVNIWSENDPADFRIYNVTYLEPSLRIAASTLKSGISYRARVRAWAQCYNTTWSEWSPSTKWHNSYREPFDYKDDDDKAAHHHHHHHHHH
Q: How did the IC50 [2] turn out when B7 was run?
A: Its IC50 is 20 nM.

B8: EM23 (receptor)
chain: MKVLQEPTCVSDYMSISTCEWKMNGPTNCSTELRLLYQLMFFEFSENHTCIPENNGGAGCVCHLLMDDVVSADNYTLDLWAGQQLLWKGSFKPSEHVKPRAPGNLTVHTNVSDTLLLTWSNPYPPDNYLYNHLTYAVNIWSENDPADFRIYNVTYLEPSLRIAASTLKSGISYRARVRAWAQCYNTTWSEWSPSTKWHNSYREPFDYKDDDDKAAHHHHHHHHHH
Q: For B8, which IC50 [2] is on record?
A: Its IC50 is 56 nM.

B9: EM01 (receptor)
chain: MKVLQEPTCVSDYMSISTCEWKMNGPTNCSTELRLLYQLVFLLSEAHTCIPENNGGAGCVCHLEMDDVVSADNYTLDLWAGQQLLWKGSFKPSEHVKPRAPGNLTVHTNVSDTLLLTWSNPYPPDNYLYNHLTYAVNIWSENDPADFRIYNVTYLEPSLRIAASTLKSGISYRARVRAWAQCYNTTWSEWSPSTKWHNSYREPFNPAFLYKVVGAADYKDDDDKAAHHHHHHHHHH
Q: For B9, which IC50 [4] is on record?
A: Its IC50 is 0.71 nM.

B10: EM02 (receptor)
chain: MKVLQEPTCVSDYMSISTCEWKMNGPTNCSTELRLLYQLVFLLSEAHTCIPENNGGAGCVCHLLMNDVVSADNYTLDLWAGQQLLWKGSFKPSEHVKPRAPGNLTVHTNVSDTLLLTWSNPYPPDNYLYNHLTYAVNIWSENDPADFRIYNVTYLEPSLRIAASTLKSGISYRARVRAWAQCYNTTWSEWSPSTKWHNSYREPFNPAFLYKVVGAADYKDDDDKAAHHHHHHHHHH
Q: For B10, which IC50 [4] is on record?
A: The IC50 was 2.25 nM.

B11: EM03 (receptor)
chain: MKVLQEPTCVSDYMSISTCEWKMNGPTNCSTELRLLYQLVFLLSEAHTCIPENNGGAGCVCHLLMDRVVSADNYTLDLWAGQQLLWKGSFKPSEHVKPRAPGNLTVHTNVSDTLLLTWSNPYPPDNYLYNHLTYAVNIWSENDPADFRIYNVTYLEPSLRIAASTLKSGISYRARVRAWAQCYNTTWSEWSPSTKWHNSYREPFNPAFLYKVVGAADYKDDDDKAAHHHHHHHHHH
Q: Which % inhibition at the highest concentration (1000 nM) [4] does the source give for B11 here?
A: Its % inhibition at the highest concentration (1000 nM) is 29%.

B12: EM04 (receptor)
chain: MKVLQEPTCVSDYMSISTCEWKMNGPTNCSTELRLLYQLVFLLSEAHTCIPENNGGAGCVCHLLMDDPVSADNYTLDLWAGQQLLWKGSFKPSEHVKPRAPGNLTVHTNVSDTLLLTWSNPYPPDNYLYNHLTYAVNIWSENDPADFRIYNVTYLEPSLRIAASTLKSGISYRARVRAWAQCYNTTWSEWSPSTKWHNSYREPFNPAFLYKVVGAADYKDDDDKAAHHHHHHHHHH
Q: With B12 as the binder, how does the fold higher IC50 than human IL-4Rα [3] read?
A: Its fold higher IC50 than human IL-4Rα is 20 fold.

Q: What about the IC50 [4] of the same binder?
A: The IC50 was 15 nM.

B13: EM05 (receptor)
chain: MKVLQEPTCVSDYMSISTCEWKMNGPTNCSTELRLLYQLVFLLSEAHTCIPENNGGAGCVCHLLMDDVVQADNYTLDLWAGQQLLWKGSFKPSEHVKPRAPGNLTVHTNVSDTLLLTWSNPYPPDNYLYNHLTYAVNIWSENDPADFRIYNVTYLEPSLRIAASTLKSGISYRARVRAWAQCYNTTWSEWSPSTKWHNSYREPFNPAFLYKVVGAADYKDDDDKAAHHHHHHHHHH
Q: For B13, which IC50 [4] is on record?
A: The IC50 was 1.65 nM.

B14: EM06 (receptor)
chain: MKVLQEPTCVSDYMSISTCEWKMNGPTNCSTELRLLYQLVFLLSEAHTCIPENNGGAGCVCHLLMDDVVSSDNYTLDLWAGQQLLWKGSFKPSEHVKPRAPGNLTVHTNVSDTLLLTWSNPYPPDNYLYNHLTYAVNIWSENDPADFRIYNVTYLEPSLRIAASTLKSGISYRARVRAWAQCYNTTWSEWSPSTKWHNSYREPFNPAFLYKVVGAADYKDDDDKAAHHHHHHHHHH
Q: For B14, which IC50 [4] is on record?
A: The IC50 was 3.25 nM.

B15: EM07 (receptor)
chain: MKVLQEPTCVSDYMSISTCEWKMNGPTNCSTELRLLYQLVFLLSEAHTCIPENNGGAGCVCHLLMDDVVSADRYTLDLWAGQQLLWKGSFKPSEHVKPRAPGNLTVHTNVSDTLLLTWSNPYPPDNYLYNHLTYAVNIWSENDPADFRIYNVTYLEPSLRIAASTLKSGISYRARVRAWAQCYNTTWSEWSPSTKWHNSYREPFNPAFLYKVVGAADYKDDDDKAAHHHHHHHHHH
Q: B15 was tested. Which IC50 [4] did it give?
A: Its IC50 is 1.41 nM.
